These results are taken from publication PMC6915384, “Kinetic Parameter Estimation and Mathematical Modelling of Lipase Catalysed Biodiesel Synthesis in a Microreactor” (Micromachines, 2019).

Substrate in this data set: CO
As to the kind of experiment: initial rates of FAME formation in PTFE microreactor, GC; non-linear regression. It counts as biochemical, Thermomyces lanuginosus. The note with it: transesterification, co-substrate sunflower oil (fatty acids constant; printed 1,488.15 mg/L), 40 °C, 0.01 mol/L potassium phosphate pH 7.4, double-substrate Michaelis-Menten, methanol range printed a.

B1: lipase from Thermomyces lanuginosus (Lipolase 100L; Lipolase L100; TlL) (Thermomyces lanuginosus) (protein)
chain: EVSQDLFNQFNLFAQYSAAAYCGKNNDAPAGTNITCTGNACPEVEKADATFLYSFEDSGVGDVTGFLALDNTNKLIVLSFRGSRSIENWIGNLNFDLKEINDICSGCRGHDGFTSSWRSVADTLRQKVEDAVREHPDYRVVFTGHSLGGALATVAGADLRGNGYDIDVFSYGAPRVGNRAFAEFLTVQTGGTLYRITHTNDIVPRLPPREFGYSHSSPEYWIKSGTLVPVTRNDIVKIEGIDATGGNNQPNIPDIPAHLWYFGLIGTCL
notes: commercial liquid preparation Lipolase 100L (Sigma-Aldrich), free enzyme in phosphate buffer; mass 33,400 g/mol used for calculations (cited)
With B1, the Km came out at 7.56 ± 2.77 mg/mL.

Broadly, the Km is the substrate concentration at which the rate is half of its maximum.
